Assay results reported in patent US20160200782A1.

Legend:
Experiment in all cases: cell-based or functional assay
[1] = target: CK1δ(h) (human), P48730
[2] = target: CaMKIIδ(h) (human), Q13557
[3] = target: CaMKIδ(h) (human), Q8IU85
[4] = target: JNK2α2(h) (human), P45984
[5] = target: MKK7β(h) (human), O14733
[6] = target: PKCβI(h) (human), P05771
[7] = target: PKG1α(h) (human), Q13976
Chain of PKG1α(h) (human), Q13976 (Q13976 whole entry): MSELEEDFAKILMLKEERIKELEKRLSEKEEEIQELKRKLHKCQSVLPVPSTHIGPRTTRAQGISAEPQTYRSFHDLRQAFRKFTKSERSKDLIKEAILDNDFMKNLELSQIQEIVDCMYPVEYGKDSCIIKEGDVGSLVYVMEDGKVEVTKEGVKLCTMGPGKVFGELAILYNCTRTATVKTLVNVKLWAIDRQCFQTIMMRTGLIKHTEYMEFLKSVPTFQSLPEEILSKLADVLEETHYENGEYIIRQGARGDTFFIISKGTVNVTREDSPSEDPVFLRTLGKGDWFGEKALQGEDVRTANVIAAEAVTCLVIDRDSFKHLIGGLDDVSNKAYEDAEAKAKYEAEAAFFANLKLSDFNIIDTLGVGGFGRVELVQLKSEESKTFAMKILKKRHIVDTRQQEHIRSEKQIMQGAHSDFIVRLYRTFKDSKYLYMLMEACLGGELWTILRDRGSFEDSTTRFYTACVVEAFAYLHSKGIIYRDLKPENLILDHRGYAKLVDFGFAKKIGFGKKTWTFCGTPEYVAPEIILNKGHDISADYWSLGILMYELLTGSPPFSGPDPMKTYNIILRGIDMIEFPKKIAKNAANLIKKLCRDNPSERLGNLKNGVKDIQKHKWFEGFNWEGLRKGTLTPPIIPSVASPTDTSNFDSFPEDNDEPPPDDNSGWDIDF

Chain of CaMKIIδ(h) (human), Q13557 (Q13557 whole entry, stated change not applied): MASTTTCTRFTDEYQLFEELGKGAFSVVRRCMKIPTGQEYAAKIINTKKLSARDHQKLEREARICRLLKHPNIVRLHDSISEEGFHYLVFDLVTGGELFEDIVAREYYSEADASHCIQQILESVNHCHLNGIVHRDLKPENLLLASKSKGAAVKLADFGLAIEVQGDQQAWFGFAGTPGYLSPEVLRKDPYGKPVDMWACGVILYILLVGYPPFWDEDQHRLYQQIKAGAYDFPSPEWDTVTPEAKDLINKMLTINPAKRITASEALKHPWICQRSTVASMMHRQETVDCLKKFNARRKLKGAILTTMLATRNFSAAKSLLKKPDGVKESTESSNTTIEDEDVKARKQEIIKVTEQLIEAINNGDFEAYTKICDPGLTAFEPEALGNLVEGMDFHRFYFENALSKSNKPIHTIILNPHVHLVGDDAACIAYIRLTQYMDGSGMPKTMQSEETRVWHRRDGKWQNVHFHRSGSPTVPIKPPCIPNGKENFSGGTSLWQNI
Chain of MKK7β(h) (human), O14733 (O14733 whole entry): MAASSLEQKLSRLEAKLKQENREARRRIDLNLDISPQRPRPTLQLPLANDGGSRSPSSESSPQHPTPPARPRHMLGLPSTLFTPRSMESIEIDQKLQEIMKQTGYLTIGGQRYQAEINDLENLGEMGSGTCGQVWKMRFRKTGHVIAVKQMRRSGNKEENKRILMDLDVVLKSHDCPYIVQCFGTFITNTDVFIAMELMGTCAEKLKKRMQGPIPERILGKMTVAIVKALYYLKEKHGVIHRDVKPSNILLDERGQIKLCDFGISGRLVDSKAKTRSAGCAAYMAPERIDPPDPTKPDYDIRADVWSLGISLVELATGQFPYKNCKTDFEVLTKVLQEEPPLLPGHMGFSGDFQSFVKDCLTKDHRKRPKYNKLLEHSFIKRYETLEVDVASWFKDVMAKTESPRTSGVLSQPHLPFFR
Chain of CK1δ(h) (human), P48730 (P48730 1-294, stated change not applied): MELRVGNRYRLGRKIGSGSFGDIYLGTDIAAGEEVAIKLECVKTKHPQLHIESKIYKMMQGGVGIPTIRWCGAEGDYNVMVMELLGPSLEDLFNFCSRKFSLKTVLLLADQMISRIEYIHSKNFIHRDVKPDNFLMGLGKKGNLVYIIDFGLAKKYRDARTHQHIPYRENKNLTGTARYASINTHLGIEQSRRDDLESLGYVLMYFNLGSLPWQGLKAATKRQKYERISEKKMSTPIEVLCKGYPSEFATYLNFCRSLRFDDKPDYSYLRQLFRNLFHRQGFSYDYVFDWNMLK
Chain of CaMKIδ(h) (human), Q8IU85 (Q8IU85 whole entry, stated change not applied): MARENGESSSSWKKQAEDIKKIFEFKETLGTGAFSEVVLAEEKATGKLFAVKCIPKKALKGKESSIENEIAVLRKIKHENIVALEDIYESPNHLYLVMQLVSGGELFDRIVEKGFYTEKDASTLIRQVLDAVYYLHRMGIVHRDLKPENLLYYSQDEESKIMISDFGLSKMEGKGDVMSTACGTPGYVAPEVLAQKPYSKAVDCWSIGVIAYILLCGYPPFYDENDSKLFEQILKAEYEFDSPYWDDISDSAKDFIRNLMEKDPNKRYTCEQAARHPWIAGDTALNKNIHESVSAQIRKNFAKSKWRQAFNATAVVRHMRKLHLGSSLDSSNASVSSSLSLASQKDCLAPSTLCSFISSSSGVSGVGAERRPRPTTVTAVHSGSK
Chain of PKCβI(h) (human), P05771 (P05771 whole entry): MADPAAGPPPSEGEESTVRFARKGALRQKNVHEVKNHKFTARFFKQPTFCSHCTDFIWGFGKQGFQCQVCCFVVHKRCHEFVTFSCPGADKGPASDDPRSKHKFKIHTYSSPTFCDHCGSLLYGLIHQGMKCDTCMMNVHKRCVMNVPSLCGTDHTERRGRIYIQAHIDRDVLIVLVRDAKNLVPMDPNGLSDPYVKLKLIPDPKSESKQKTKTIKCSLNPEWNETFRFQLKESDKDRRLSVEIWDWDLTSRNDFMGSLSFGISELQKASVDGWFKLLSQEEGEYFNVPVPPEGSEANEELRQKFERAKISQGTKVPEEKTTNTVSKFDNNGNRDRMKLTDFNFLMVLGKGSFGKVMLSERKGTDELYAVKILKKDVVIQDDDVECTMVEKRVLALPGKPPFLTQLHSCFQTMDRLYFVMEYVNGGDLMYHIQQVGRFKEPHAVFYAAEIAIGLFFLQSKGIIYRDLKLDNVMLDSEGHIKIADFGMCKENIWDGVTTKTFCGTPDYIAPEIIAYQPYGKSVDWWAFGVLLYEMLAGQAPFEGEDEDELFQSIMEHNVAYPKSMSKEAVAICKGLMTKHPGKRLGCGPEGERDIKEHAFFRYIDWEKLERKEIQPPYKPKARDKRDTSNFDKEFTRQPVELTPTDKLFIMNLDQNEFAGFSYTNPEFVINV

| Binder | % activity [1] | % activity [2] | % activity [3] | % activity [4] | % activity [5] | % activity [6] | % activity [7] |
| --- | --- | --- | --- | --- | --- | --- | --- |
| KAFAKLAARLYRKALARQLGVAA [MMI-0400] | 93% | 2% | 17% | 96% | 94% | 78% | 58% |
| FAKLAARLYRKALARQLGVAA [MMI-0300] | 92% | 1% | 10% | 98% | 100% | 78% | 64% |
